# Where a chain is given by its changes, count along the chain named.
# Legend:
# [1] = tested on: T1, dCas12j-8 D512R D512R;D369A;E567A;D658A (bacteriophage (metagenome)); settings: HEK293T cells; panel 1c (compare within a panel only); scale: mean GFP / mean GFP of wild type, printed, no background subtraction
# T1 sequence: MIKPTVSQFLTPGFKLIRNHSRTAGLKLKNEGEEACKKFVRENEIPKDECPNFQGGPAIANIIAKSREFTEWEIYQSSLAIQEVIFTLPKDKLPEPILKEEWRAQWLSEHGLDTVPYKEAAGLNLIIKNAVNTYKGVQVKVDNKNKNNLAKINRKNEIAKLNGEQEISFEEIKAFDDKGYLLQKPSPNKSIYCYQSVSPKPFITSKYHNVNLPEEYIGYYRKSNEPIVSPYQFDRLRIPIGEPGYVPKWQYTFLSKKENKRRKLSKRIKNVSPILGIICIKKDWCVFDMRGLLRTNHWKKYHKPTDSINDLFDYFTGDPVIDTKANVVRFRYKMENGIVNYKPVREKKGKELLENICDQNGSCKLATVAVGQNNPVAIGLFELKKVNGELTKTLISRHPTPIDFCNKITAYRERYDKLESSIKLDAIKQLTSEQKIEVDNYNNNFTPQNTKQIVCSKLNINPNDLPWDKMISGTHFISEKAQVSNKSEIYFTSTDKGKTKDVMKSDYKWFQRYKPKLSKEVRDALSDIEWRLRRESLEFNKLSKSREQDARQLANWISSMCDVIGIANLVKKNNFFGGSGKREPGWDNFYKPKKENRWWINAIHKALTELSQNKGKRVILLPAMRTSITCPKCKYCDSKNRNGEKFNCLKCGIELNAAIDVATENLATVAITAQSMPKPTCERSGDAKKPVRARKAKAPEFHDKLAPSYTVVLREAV
# [2] = tested on: T2, dCas12j-8 D234R D234R;D369A;E567A;D658A (bacteriophage (metagenome)); settings: HEK293T cells; panel 1c (compare within a panel only); scale: mean GFP / mean GFP of wild type, printed, no background subtraction
# T2 sequence: T1 sequence with D234R, R512D
# [3] = tested on: T3, dCas12j-8 E258R+D142R E258R;D142R;D369A;E567A;D658A (bacteriophage (metagenome)); settings: HEK293T cells; panel 1d (compare within a panel only); scale: mean GFP / mean GFP of wild type, printed, no background subtraction
# T3 sequence: T1 sequence with D142R, E258R, R512D
sequence,measurement,setting,value
CUUUCAAGACUAAUAGAUUGCUCCUUACGAGGAGACACUCCCUAUCAGUGAUAGAG / TTNACTCCCTATCAGTGATAGAG / CTCTATCACTGATAGGGAGTNAA [TetO],binding signal,[1],1.07
same,binding signal,[2],0.475
same,binding signal,[3],1.87

# Reference: article PMC12412624, “Engineered Cas12j‐8 is a Versatile Platform for Multiplexed Genome Modulation in Mammalian Cells”
